In PMC2810291, “Identification and characterization of endonuclein binding proteins: evidence of modulatory effects on signal transduction and chaperone activity” (BMC Biochemistry, 2009):

Target: T1, recombinant endonuclein (human, UniProt Q13610 2-501)
T1 construct: human endonuclein, coding region Asn2-Ser501 of the 2309.2 cDNA, in the vector pT7-PL; also called IEF SSP 9502; PWP1 (yeast homologue's name)
Test: SPR; BIAcore 2000; endonuclein amine-coupled to a CM5 chip (3302 RU); analytes at 1 μM or 5 μM in 10 mM Hepes, 150 mM NaCl, 5 mM CaCl2, 1 mM EGTA, pH 7.4, 0.005% P20; control flow channel subtracted
Conditions: both partners purified

- binding result: binds
B1: recombinant TIP-1 as fusion protein with glutathion S-transferase (natural protein, UniProt O14907 1-124, looked up)
chain: MSYIPGQPVTAVVQRVEIHKLRQGENLILGFSIGGGIDQDPSQNPFSEDKTDKGIYVTRVSEGGPAEIAGLQIGDKIMQVNGWDMTMVTHDQARKRLTKRSEEVVRLLVTRQSLQKAVQQSMLS
notes: TIP-1, coding region of the cDNA amplified with primers from the start codon (ATG-TCC-TAC-ATC-CCG-GGC-CA) to the stop codon, in pGEX-4T3; pGEX-4T3 is known to place GST at the N-terminus; also called GST-TIP-1; source: E. coli, purified (pGEX, according to the manufacturer)
